Test results: patent US20180236032A1
Where two headings read alike, the source gives them in different places.

Tests used:
Assay in all cases: cell-based or functional assay
[1] = target: FGFR3c expressed on BaF3 cells (BaF3/FGFR3c)
[2] = target: FGFR3c expressed on BaF3 cells (BaF3/FGFR3c); remark: listed apart in the source
[3] = target: FGFR3c expressed on BaF3 cells (BaF3/FGFR3c); remark: listed apart in the source

Substance: recombinant truncated FGF-18 (trFGF-18) (from UniProt O76093 28-196) (ligand)
- BaF3/FGFR3 cell proliferation, O.D. (WST-1), Sprifermin 100 ng/mL (CTR+) [1]: 0.194 O.D.
- BaF3/FGFR3 cell proliferation, O.D. (WST-1), Sprifermin 100 ng/mL (CTR+) [2]: 0.15 O.D.
- BaF3/FGFR3 cell proliferation, O.D. (WST-1), Sprifermin 100 ng/mL (CTR+) [3]: 0.5 O.D.
- BaF3/FGFR3 cell proliferation, Optical Density (WST-1), Sprifermin 100 ng/mL (CTR+) [3]: 0.5 O.D.
